These results are taken from US20240175877A1 (GENERAL HOSPITAL, published 2024).

In test [1] the target is T1, Ara h 2 (peanut, UniProt Q6PSU2 23-172, 4-hydroxyproline at positions 67, 74, and 86; biotinylated in the BLI assays).
T1 construct: BLI: biotinylated (native) Ara h 2 on streptavidin sensors; also called conglutin-7; peanut allergen
T1 sequence: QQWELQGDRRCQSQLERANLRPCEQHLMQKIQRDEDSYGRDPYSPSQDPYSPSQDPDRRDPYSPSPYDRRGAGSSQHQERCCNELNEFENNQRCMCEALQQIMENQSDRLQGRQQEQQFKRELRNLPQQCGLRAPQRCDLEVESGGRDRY
The experiment in a line: epitope summary.

Test [2] has as its target T1, Ara h 2. The experiment in a line: epitope bin summary.
In test [3] the target is T1, Ara h 2. In words: SPR, Biacore 3000. As for the experimental part: Calculated equilibrium dissociative constants (K)) for antigen binding to anti-Ara h 2 antibodies was determined using a real-time surface plasmon resonance biosensor (Biacore 3000) assay.
The target of a further test is T2, Peptide_009 (peanut).
T2 construct: also called peptide 9
T2 peptide: WELQGDRRCQSQLER
In words: peptide microarray. As for the experimental part:
(§1) The peptide mapping using microarrays was performed with 40 antibody samples diluted 1:1000 in blocking buffer (see below). Sample dilutions were incubated for 1 hour at 30° C. on multiwell microarray slides. The slides contained 21 individual mini-arrays (1 mini-array per sample dilution).
(§2) Subsequent to sample incubation, secondary fluorescently labeled anti-human-IgG antibody at 1 μg/ml was added into the corresponding wells and left to react for 1 hour.
(§3) Additional control incubations applying the secondary antibody only was performed in parallel on the microarray slides to assess false-positive binding to peptides.

A further test concerns the target T3, Peptide_010 (peanut).
T3 construct: also called peptide 10
T3 peptide: QGDRRCQSQLERANL
The experiment in a line: peptide microarray. As for the experimental part: as §1, §2, §3

The next test concerns the target T4, Peptide_011 (peanut).
T4 construct: also called peptide 11
T4 peptide: RRCQSQLERANLRPC
The experiment in a line: peptide microarray. As for the experimental part:
as §1, §2, §3

Another test addresses T5, Peptide_012 (peanut).
T5 construct: also called peptide 12
T5 peptide: QSQLERANLRPCEQH
The experiment in a line: peptide microarray. As for the experimental part:
as §1, §2, §3

B1: 23BU2P34 (antibody, IgG1, V domains shown)
VH: QVQLVESGGLVVQPGGSLRLSCEASGFTFDDYTMHWVRQSPQKGLEWVSLIRWDGSRTEYADSVKGRFTISRDNSKNSLYLQMNTLRADDSAFYFCVKDGGLRYFDSWGQGTLVTVSS
VL: EIVMTQSPLSLPVTPGEPASISCRSSQSLLHSNGIHYLDWYLQKPGQSPQLLIYLGSKRASGVPDRFSGSGSGTDFTLKISRVEAEDVGVYYCMQSLQTFTFGPGTKVDIK
notes: recombinant IgG1
Regarding B1, in the test with Ara h 2 [1], the binding result was “binds”.

B2: 6BU4P2B1 (antibody, IgG1, V domains shown)
VH: VESGGGLIQPGRSLRLSCAVSGFSFDDYAMYWVRQVPGKGLEWVSGISWNSGTIEYADSVKGRFTISRDNAKKSLFLEMNSLRSEDTAIYYCAKGTGWELVSALENWGQGTVVTVSS
VL: QSPSSLSASVGNKVTITCRASQTISDYLNWYQQKPGKAPKLLIYAASSLQSAVPSRFAGSGSGTEFTLTISSLQPEDFATYYCQQSYSPPFTFGPGTKVDIK
notes: recombinant IgG1
B2: in the test with Ara h 2 [2], the binding result is “binds”.

B3: 13BU2T4 (antibody, IgG1, V domains shown)
VH: ESGPRLVKPSETLSLTCIVSGDSISSYYWGWIRQPAGRGLEWIGRIFTSGSTTYNPSLKSRVSMSVETSKNQFSLTLTSVTAADTAVYFCARDRRALSSDGNWYWYFDLWGRGTLVAVSS
VL: TQSPSSLSASVGDRVTITCRASQTITRNLNWYQQKSGEAPKLLIYGASILQSGVPSRFTGSGSGTDFTLTISNLQPEDFASYSCQQSDNTPRTFGQGTKVEIK
notes: recombinant IgG1
In the case of B3, the affinity in the test with Ara h 2 [3], expressed as Kd, was 0.00143 nM.

B4: 15FU1P1A3 (antibody, V domains shown)
VH: QSGAEVKKPGASVKISCKASGYTFTTYAMHWVRQAPGQRLEWMGGINAGNGNPKYSEKFQDRVTITRDTSATTAYMELSSLRSEDTAVYYCARDAAGTRGNWLDPWGQGTLVTVSS
VL: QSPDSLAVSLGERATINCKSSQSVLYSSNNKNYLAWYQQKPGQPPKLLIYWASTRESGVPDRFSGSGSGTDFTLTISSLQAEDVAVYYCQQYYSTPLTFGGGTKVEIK
notes: recombinant IgG1
In the case of B4, in the test with Ara h 2 [2], the binding result is “binds”.

B5: 11FUP1A2 (antibody, IgG1, V domains shown)
VH: ESGGAVVQPGGSLRLSCAASGFTVEDYTIHWVRQVPGKGLEWISLISWDGDRTAYTDSVKGRFTISRDNIKNSLYLLMNSLRTEDTALYYCVKDNGWRSFAYWGQGILVTVST
VL: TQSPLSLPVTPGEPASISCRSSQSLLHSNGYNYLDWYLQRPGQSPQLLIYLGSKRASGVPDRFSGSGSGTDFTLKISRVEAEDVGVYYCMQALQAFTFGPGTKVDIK
notes: recombinant IgG1
B5: the binding result in the test with Ara h 2 [2] is listed as “binds”.

B6: 23BU2P3 (antibody, IgG1, V domains shown)
VH: QVQLVESGGGLVQPGRSLRLSCAASGFIFADYTMHWVRQSPGKDLEWVSRISWNSGGVEYADSVKGRFTISRDNAKNSLYLQMNSLRVEDTALYYCVKDNGYRAFDLWGLGTMVTVSS
VL: DVVMTQSPVSLPVTPGEPASISCRSSQSLVHSNGYNYLDWYLQKPGQSPQLLIYMGSNRASGVPDRFSGSGSGTDFTLKISRVEAEDVGVYYCMQSLQTWTFGQGTKVEIK
notes: recombinant IgG1
For B6, the binding result with Ara h 2 [1] is listed as “binds”.

B7: 22BU2S4 (antibody, IgG1, V domains shown)
VH: RCKLQESGPGLVKPSESLSLTCNVSGMSISSYYWSWIRQPAGKGLEWIGRIFTTGSTKDNPSLKSRVTMSVDTSRNQFSLTLTSVTAADTAVYYCARLRRVVVPRVSWYFDLWGHGTLVTVSS
VL: TQSPSSLSASVGDRVTITCQASQDISKSLNWYHQKPGKAPTVLIYDASNLETGVPSRFSGSGSGTEFTFTISSLQSEDFGTYYCQQYDNVPMYTFGQGTKVETK
notes: recombinant IgG1
In the case of B7, in the test with Ara h 2 [1], the binding result was “binds”.

B8: 89BU7P1B10 (antibody, IgG1, V domains shown)
VH: QESGPGLVKPSETLSLTCTVSGGSIGRHYWSWIRQPPGKGLEWIAYIYDSGSTKYNPSLESRVTISEDTSQNQFSLKLTSVTAADTAIYYCARHNAPYGGNSDDYFEFWGPGTLVTVSS
VL: TQSPSSLSASVGDRVTITCRANETISDYLNWYQGKPGTAPKPLIYAASSLQSGVPSRFSGSGSETYFTLTISSLQPEDFATYYCQQSYSVPLTFGGGTKVESK
notes: recombinant IgG1
In the case of B8, the binding result with Ara h 2 [2] was “binds”.

B9: 15FU1P3A1 (antibody, IgG1, V domains shown)
VH: LVQSGAEVKKPGASVKVSCKASGYTFTRYDINWVRQATGQGLEWMGWMNPKSGETGYAQKFHGRVIMSWNTSISTAYMELSSLRSEDTAVYYCTRGVDSGVWGQGTTVTVSS
VL: TQSPDSLAVSLGERATINCKSSQSVLDSSNNKKFLAWFQQKPGQRPKLLIYWASTRESGVPDRFTGSGSGTDFTLTISSLQAEDVAVYYCQQYYSPPHTFGQGTKLEIK
notes: recombinant IgG1
Turning to B9, the binding result with Peptide_009, in the test with Peptide_010, with Peptide_011, with Peptide_012 and with Ara h 2 [2] was “binds” each time.

B10: 13FU1P1A4 (antibody, IgG1, V domains shown)
VH: VQLVESGGTLGQPGGSLRLSCTASGFTFNRFAINWVRQAPGKGLEWVAAISGTGAVTYYADSVEGRFSISRENSNNTVFLEMNNLRGEDTAVYFCAKDRTPVTNYYGMDVWGQGTTVTVSS
VL: TQSPSSLSASVGDRVIITCRGSQTIDNYLNWYQQKPGKAPRLLISAASSLQGGVPSRFSGSGYGTDFTLTISSLQPEDFATYYCQQTSSTPYTFGQGTKVEIK
notes: recombinant IgG1
Turning to B10, the binding result with Ara h 2 [2] is recorded as “binds”.

B11: 13BU2T3 (antibody, IgG1, V domains shown)
VH: GGGVVQPGTSLRLSCVASGFTFRDYSMHWVRQAPGKGLEWVSFIRFDGTTKDYRDSVKGRFIISRDDSKNTLYLQMTSLRVEDTALYYCAKDNGWRAFDHWGQGALVTVSS
VL: VMTQSPLSLPVTPGEAASISCRSSQSLLHRNGYIYLDWYLQRPGQSPQLLISFVSKRASGAPDRFSGSGSGTDFTLTISRVEAEDFGVYFCMQALETPWTFGPGTKLEIK
notes: recombinant IgG1
B11: binding with Ara h 2 [3] was put at a Kd of 0.193 nM.

B12: 14FU2P1D6 (antibody, IgG1, V domains shown)
VH: ESGPGLVKPSETLSLTCTVSGDSISSYYWSWIRQPAGKGLEWIGRIFTSGSTNINPSLKSRVTMSVDTSKNQFSLQLGSVTAADTAIYYCAKHTRDFWSDDSRVHWYFNLWGRGTLVTVSS
VL: QSPGTLSLSPGERATLSCRASQSVSNNFLAWYQQQPGQAPSLLIYGASTRATGIPDRFSGSGSGTDFTLTISRLEPEDFAVYFCQQYDSSPYTFGQGTKLEIK
notes: recombinant IgG1; also called 14FU1P1D6
Turning to B12, in the test with Ara h 2 [2], the binding result was “binds”.

B13: 13BU2T5 (antibody, V domains shown)
VH: QVQLQESGPGLVKPSETLSLTCTVSGGSMSSYYWGWIRQPAGRGLEWIGRIFTTGSTIYNASLNSRVSMSVDTSKNQFSLKLTSVTAADTALYFCVRDRRGRSHDSNWYWYFDLWGRGTLVTVSS
VL: RVIITCRASQTLSRNLNWYQQKPGEAPKLLIYGASTLQSGVPSRFTGSGSGTDFTLIISGLQPEDFATYYCQQSDNTPRTFGQGT
In the test with Ara h 2 [3], B13 displayed a Kd of 0.112 nM.

B14: 27FU1P3A4 (antibody, IgG1, V domains shown)
VH: ESGGGLVQPGGSLRLSCVASGFPFDDFVFAWVRQAPGGGLEWVSAISSRRTNTFYADSVKGRFTISRDNTRKTVNLQMNSLRGEDTAVYYCAKGETRYLEWIIQSSGFDYWGPGTLVAVSS
VL: QSPSSLSASVGERVTITCRANQTISTYLNWYQQKVGKAPKSLIRAASSLESGVPSRFSGSGSGTDFTLTINSLQREDFATYYCQQTYNVPPTFGQGTRVELK
notes: recombinant IgG1
In the case of B14, in the test with Ara h 2 [2], the binding result was “binds”.

B15: 23BU2P31 (antibody, IgG1, V domains shown)
VH: QVQLQESGPGLVEPSETLSLTCTVSGDPFTSYYWTWIRQPAGKGLEWLGRIFTTGSTSYNPSLKSRVTMSVDTSKSQFSLKLTAVTAADTAVYYCARVRRYCSGGRCYPYFYMDVWGKGTTVIVSS
VL: DIRETQSPSTLSASVGDRVTITCRASESISSWLAWYQQKPGKAPKLLIYEASTLETGVPSRFSGSGSGTEFTLTIRSLQPDDFATYYCQHYNSDSLTFGGGTKVEIK
notes: recombinant IgG1
Turning to B15, in the test with Ara h 2 [1], the binding result is listed as “binds”.
